# Assay results: patent US20190071513A1 (APTEVO RESEARCH AND DEVELOPMENT, published 2019)
# Read-outs that look alike come from different tables or passages of the source.
# B1: anti-human CD123 monoclonal antibody 7G3 (antibody, from another filing, V domains shown)
# VH: EVQLQQSGPELVKPGASVKMSCKASGYTFTDYYMKWVKQSHGKSLEWIGDIIPSNGATFYNQKFKGKATLTVDRSSSTAYMHLNSLTSEDSAVYYCTRSHLLRASWFAYWGQGTLVTVSA
# VL: DFVMTQSPSSLTVTAGEKVTMSCKSSQSLLNSGNQKNYLTWYLQKPGQPPKLLIYWASTRESGVPDRFTGSGSGTDFTLTISSVQAEDLAVYYCQNDYSYPYTFGGGTKLEIKR
# B2: TRI168 (bispecific antibody)
# chain 1: QAVVTQEPSLTVSPGGTVTLTCRSSTGAVTTSNYANWVQQKPGQAPRGLIGGTNKRAPWTPARFSGSLLGGKAALTITGAQAEDEADYYCALWYSNLWVFGGGTKLTVLGGGGSGGGGEVQLVQSGAELKKPGASVKVSCKASGYTFTDYYMKWVRQAPGQGLEWIGDIIPSNGATFYNQKFKGRVTITVDKSTSTAYMELSSLRSEDTAVYYCARSHLLRASWFAYWGQGTLVTVSSGGCGGGEVAALEKEVAALEKEVAALEKEVAALEK
# chain 2: DFVMTQSPDSLAVSLGERVTMSCKSSQSLLNSGNQKNYLTWYQQKPGQPPKLLIYWASTRESGVPDRFSGSGSGTDFTLTISSLQAEDVAVYYCQNDYSYPYTFGQGTKLEIKGGGSGGGGEVQLVESGGGLVQPGGSLRLSCAASGFTFSTYAMNWVRQAPGKGLEWVGRIRSKYNNYATYYADSVKDRFTISRDDSKNSLYLQMNSLKTEDTAVYYCVRHGNFGNSYVSWFAYWGQGTLVTVSSGGCGGGKVAALKEKVAALKEKVAALKEKVAALKESSSLNDIFEAQKIEWHEDYKDDDDKDYKDDDDKDYKDDDDKHHHHHHHHHH
# B3: TRI129 (bispecific antibody)
# chain: EVQLLESGGGLVQPGGSLRLSCAASGFTFSSYGMSWVRQAPGKGLEGVSAISGSGGSTYYADSVKGRFTISRDNSKNTLYLQMNSLRAEDTAVYYCAKEKLRYFDWLSDAFDIWGQGTMVTVSSGGGGSGGGGSGGGGSGGGGSDIVMTQSPDSLAVSLGERATINCKSSHSVLYSSNNKNYLAWYQQKPGQPPKLLIYWASTRESGVPDRFSGSGSGTDFTLTISSLQAEDVAVYYCQQYYSTPPTTFGGGTKVEIKSSSEPKSSDKTHTCPPCPAPEAAGAPSVFLFPPKPKDTLMISRTPEVTCVVVDVSHEDPEVKFNWYVDGVEVHNAKTKPREEQYNSTYRVVSVLTVLHQDWLNGKEYKCAVSNKALPAPIEKTISKAKGQPREPQVYTLPPSRDELTKNQVSLTCLVKGFYPSDIAVEWESNGQPENNYKTTPPVLDSDGSFFLYSKLTVDKSRWQQGNVFSCSVMHEALHNHYTQKSLSLSPGSGGGGSGGGGSGGGGSPSQVQLVQSGPEVKKPGSSVKVSCKASGYTFSRSTMHWVRQAPGQGLEWIGYINPSSAYTNYNQKFKDRVTITADKSTSTAYMELSSLRSEDTAVYYCARPQVHYDYNGFPYWGQGTLVTVSSGGGGSGGGGSGGGGSGGGGSDIQMTQSPSTLSASVGDRVTMTCSASSSVSYMNWYQQKPGKAPKRWIYDSSKLASGVPSRFSGSGSGTDYTLTISSLQPDDFATYYCQQWSRNPPTFGGGTKVEIKRS
# notes: scFv-Fc-scFv, anti-CD123 × anti-CD3ε; dimer; also called OMT1 VHVL × TSC456 scFv-Fc-scFv
# B4: TSC266 (bispecific antibody)
# chain: DIQMTQSPSAMSASVGDRVTITCRASKSISKYLAWFQQKPGKVPKLRIHSGSTLQSGVPSRFSGSGSGTEFTLTISSLQPEDFATYYCQQHIEYPWTFGQGTKVEIKRGGGGSGGGGSGGGGSQVQLVQSGAEVKKPGASVKVSCKASGYTFTDYYMHWVRQAPGQGLEWMGYFNPYNDYTRYAQKFQGRVTMTRDTSISTAYMELSSLRSDDTAVYYCARSDGYYDAMDYWGQGTTVTVSSSEPKSSDKTHTCPPCPAPEAAGAPSVFLFPPKPKDTLMISRTPEVTCVVVDVSHEDPEVKFNWYVDGVEVHNAKTKPREEQYNSTYRVVSVLTVLHQDWLNGKAYACAVSNKALPAPIEKTISKAKGQPREPQVYTLPPSRDELTKNQVSLTCLVKGFYPSDIAVEWESNGQPENNYKTTPPVLDSDGSFFLYSKLTVDKSRWQQGNVFSCSVMHEALHNHYTQKSLSLSPGQRHNNSSLNTGTQMAGHSPNSQVQLVESGGGVVQPGRSLRLSCKASGYTFTRSTMHWVRQAPGQGLEWIGYINPSSAYTNYNQKFKDRFTISADKSKSTAFLQMDSLRPEDTGVYFCARPQVHYDYNGFPYWGQGTPVTVSSGGGGSGGGGSGGGGSAQDIQMTQSPSSLSASVGDRVTMTCSASSSVSYMNWYQQKPGKAPKRWIYDSSKLASGVPARFSGSGSGTDYTLTISSLQPEDFATYYCQQWSRNPPTFGGGTKLQITSSS
# notes: anti-PSMA scFv - Fc - anti-CD3 scFv (CRIS-7 derived) at the C-terminus; also called anti-PSMA×CRIS-7 scFv-Fc-scFv
# Columns and labels:
# [1] = target: human CD123 on the surface of CD123(+) cell lines (human) (UniProt P26951); test: flow cytometry competition on Molm-13 cells: preincubation with unlabeled 7G3, then PE-conjugated 7G3 at 13 nM as the competitor that is read
# [2] = target: human CD123 on the surface of CD123(+) cell lines (human) (UniProt P26951); test: cell-based or functional assay
# [3] = target: human CD123 on the surface of CD123(+) cell lines (human) (UniProt P26951); test: flow cytometry competition on Molm-13 cells; competitor PE-conjugated 7G3 at 13 nM
# [4] = target: T1, human CD123 on the surface of CD123(+) cell lines (human, UniProt P26951 19-378); test: cell-based or functional assay
# [5] = target: T1, human CD123 on the surface of CD123(+) …; test: flow cytometry on CD123(+) Molm-13 cells, PE anti-human IgG Fc secondary antibody, MFI; table under the graph
# Experimental: (§1) The Molm-13 cell line was obtained from DSMZ (Braunschweig, Germany). The Molm-13 cell line was cultured according to the provided protocols. Chinese hamster ovary (CHO) cells stably expressing the full length cynomolgus CD123 protein were developed in-house. […] Signal from bound molecules was detected using a LSR-II™ flow cytometer (BD Biosciences) and analyzed by FlowJo flow cytometry analysis software. Mean fluorescence intensity (MFI) of bound molecules on cells was determined after exclusion of doublets. Nonlinear regression analysis to determine EC50 values was performed in GraphPad Prism 7® graphing and statistics software.
# [6] = target: T1, human CD123 on the surface of CD123(+) …; test: as above; remark: listed apart in the source
# Experimental: as §1
# [7] = target: T2, Full-length cynomolgus CD123, isoform 1 (TRI114), on transfected cells (cynomolgus monkey); test: flow cytometry on CHO cells stably expressing cynomolgus CD123, PE anti-human IgG Fc secondary antibody, MFI; table under the graph
# T2 construct: also called cyno CD123; CHO cells stably expressing cynomolgus CD123 protein
# T2 chain: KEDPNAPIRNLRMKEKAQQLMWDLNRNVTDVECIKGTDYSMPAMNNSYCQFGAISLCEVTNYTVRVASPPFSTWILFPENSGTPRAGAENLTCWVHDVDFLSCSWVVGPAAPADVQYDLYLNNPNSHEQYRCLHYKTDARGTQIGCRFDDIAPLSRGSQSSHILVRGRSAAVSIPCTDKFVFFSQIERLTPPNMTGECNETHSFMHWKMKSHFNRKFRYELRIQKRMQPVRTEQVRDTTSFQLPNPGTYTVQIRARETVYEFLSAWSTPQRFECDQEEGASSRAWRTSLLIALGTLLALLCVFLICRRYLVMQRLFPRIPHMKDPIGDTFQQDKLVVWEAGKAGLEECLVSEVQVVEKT
# Experimental: as §1
# [8] = target: T3, human CD123 ectodomain with Avi-3xFLAG-His affinity tag (TRI032) (human); test: SPR (Biacore T200), bispecific captured by anti-Fc, monomeric CD123 ECD as analyte, 25 C, 1:1 model
# T3 construct: also called CD123 ECD; recombinant monomeric CD123 ectodomain (ECD)
# T3 chain: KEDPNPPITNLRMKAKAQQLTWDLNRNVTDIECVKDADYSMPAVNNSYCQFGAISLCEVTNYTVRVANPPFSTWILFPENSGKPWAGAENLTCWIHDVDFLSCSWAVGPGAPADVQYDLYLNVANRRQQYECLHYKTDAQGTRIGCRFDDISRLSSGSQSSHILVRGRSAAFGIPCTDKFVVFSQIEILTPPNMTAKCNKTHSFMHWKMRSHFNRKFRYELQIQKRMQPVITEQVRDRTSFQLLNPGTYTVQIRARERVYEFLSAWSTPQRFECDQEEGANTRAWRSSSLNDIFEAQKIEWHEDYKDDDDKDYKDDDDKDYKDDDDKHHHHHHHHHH
# Experimental: SPR binding studies of bispecific molecules to recombinant monomeric CD123 ectodomain (ECD) were conducted at 25° C. in HBS-EP+ buffer. […] The bispecific molecules at 200 nM in HBS-EP+ buffer were captured by the immobilized anti-Fc F(ab′)2 fragment at a flow rate of 30 μL/min for 120 sec to reach a stable 2000 RU response. […] Optimal regeneration was achieved by one injection of 10 mM glycine (pH 1.7) at a flow rate of 30 μL/min for 15 sec followed by one injection of 50 mM NaOH at 30 μL/min for 15 sec. A two minute stabilization with HBS-EP+ buffer was completed before the subsequent run.
# Sensorgrams obtained from kinetic SPR measurements were analyzed by the double subtraction method. The signal from the reference flow cell was subtracted from the analyte binding response obtained from flow cells with immobilized or captured ligands. Buffer reference responses were then averaged from multiple injections. […] All sensorgrams were fitted using a simple one-to-one binding model.
# [9] = target: T4, CD3ε on Jurkat cells and human T-cells (human, UniProt P07766 23-207); test: flow cytometry on CD3ε(+) Jurkat cells, PE anti-human Fc secondary
# T4 construct: whole, on cells; on cells CD3ε stands in the TCR/CD3 complex; also called CD3 epsilon; CD3ε(+) Jurkat cell line
# T4 sequence (P07766 23-207): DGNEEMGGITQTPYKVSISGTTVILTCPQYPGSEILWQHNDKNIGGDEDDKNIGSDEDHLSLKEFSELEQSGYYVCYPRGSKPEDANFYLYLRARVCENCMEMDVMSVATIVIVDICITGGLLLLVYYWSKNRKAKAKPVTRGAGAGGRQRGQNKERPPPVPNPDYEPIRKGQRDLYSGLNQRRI
# Experimental: Flow cytometry was used to quantitate binding of constructed molecules to the CD3ε expressing Jurkat cell line. Binding studies on the CD3ε(+) Jurkat cell line were performed by standard flow cytometry-based staining procedures. […] Signal from bound molecules was detected using a LSR-II™ flow cytometer (BD Biosciences) and analyzed by FlowJo flow cytometry analysis software. Mean fluorescence intensity (MFI) of bound molecules on cells was determined after exclusion of doublets.
# human CD123 on the surface of CD123(+) cell lines (human), sequence (P26951 19-378 limits assumed, form in doubt): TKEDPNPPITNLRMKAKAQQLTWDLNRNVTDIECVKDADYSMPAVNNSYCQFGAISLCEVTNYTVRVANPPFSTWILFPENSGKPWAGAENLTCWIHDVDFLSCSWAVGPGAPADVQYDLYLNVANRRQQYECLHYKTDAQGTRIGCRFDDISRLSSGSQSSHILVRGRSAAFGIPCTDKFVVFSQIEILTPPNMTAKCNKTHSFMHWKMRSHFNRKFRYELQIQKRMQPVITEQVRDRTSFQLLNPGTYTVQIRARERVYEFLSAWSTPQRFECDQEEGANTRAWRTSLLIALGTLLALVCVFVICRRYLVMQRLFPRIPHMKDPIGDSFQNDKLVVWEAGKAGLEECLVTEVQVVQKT
# T1 sequence (P26951 19-378 limits assumed, form in doubt): as above
binder,measurement,setting,value
B1,IC50 (read off the curve),[1],2 nM
same,"IL-3 induced proliferation of TF-1 cells (CyQUANT), 4 days",[2],100%
same,percent inhibition of binding of PE-conjugated 7G3,[3],100%
B2,"EC50 of T-cell activation (CD4+ and CD8+ CD25+ CD69+) with Molm-13 cells, 24 hours",[4],< 0.01 nM
same,"EC50 of T-cell proliferation (CFSE) with Molm-13 cells, 4 days",[4],0.002 to 0.005 nM
B3,EC50,[5],5.33 nM
same,EC50,[6],9.69 nM
same,EC50,[7],8.77 nM
same,Kd,[8],11.4 nM
same,koff,[8],0.00205 s⁻¹
same,kon,[8],179000 M⁻¹ s⁻¹
B4,EC50,[9],2 nM
same,fold reduction of binding against DRA240,[9],~10 fold
